Data published in article PMC8567202, “Phosphoinositide-binding activity of Smad2 is essential for its function in TGF-β signaling” (The Journal of Biological Chemistry, 2021).
Changes are numbered by the printed parent chain. Names may count otherwise.

B1: Smad2-W422A: W422A mutant of full-length Smad2; specific PI(4,5)P2 binding-compromised (protein)
chain: MSSILPFTPPVVKRLLGWKKSAGGSGGAGGGEQNGQEEKWCEKAVKSLVKKLKKTGRLDELEKAITTQNCNTKCVTIPSTCSEIWGLSTANTVDQWDTTGLYSFSEQTRSLDGRLQVSHRKGLPHVIYCRLWRWPDLHSHHELKAIENCEYAFNLKKDEVCVNPYHYQRVETPVLPPVLVPRHTEILTELPPLDDYTHSIPENTNFPAGIEPQSNYIPETPPPGYISEDGETSDQQLNQSMDTGSPAELSPTTLSPVNHSLDLQPVTYSEPAFWCSIAYYELNQRVGETFHASQPSLTVDGFTDPSNSERFCLGLLSNVNRNATVEMTRRHIGRGVRLYYIGGEVFAECLSDSAIFVQSPNCNQRYGWHPATVCKIPPGCNLKIFNNQEFAALLAQSVNQGFEAVYQLTRMCTIRMSFVKGAGAEYRRQTVTSTPCWIELHLNGPLQWLDKVLTQMGSPSVRCSSMS
modifications: left off: His6, N-terminal, state not stated
B2: Smad2- R427A/R428A: double mutant of full-length Smad2; PI(4,5)P2 and TβRI binding-compromised (protein)
chain: B1 chain with A422W, R427A, R428A
modifications: left off: His6, N-terminal, state not stated
B3: Smad2-Y426A: Y426A mutant of full-length Smad2; specific PI(4,5)P2 binding-compromised (protein)
chain: B1 chain with A422W, Y426A
modifications: left off: His6, N-terminal, state not stated
B4: Smad2-E425K: charge-reversal mutant of full-length Smad2; PI(4,5)P2 and TβRI binding-enhanced (protein)
chain: B1 chain with A422W, E425K
modifications: left off: His6, N-terminal, state not stated
B5: Smad2-K420A: K420A mutant of full-length Smad2; predominantly TβRI binding-compromised (protein)
chain: B1 chain with K420A, A422W
modifications: left off: His6, N-terminal, state not stated
B6: EGFP-Smad2 WT: mouse EGFP-Smad2 wild type transfected into HeLa cells (protein, UniProt Q62432 2-467, looked up)
Mothers against …: SSILPFTPPVVKRLLGWKKSAGGSGGAGGGEQNGQEEKWCEKAVKSLVKKLKKTGRLDELEKAITTQNCNTKCVTIPSTCSEIWGLSTANTVDQWDTTGLYSFSEQTRSLDGRLQVSHRKGLPHVIYCRLWRWPDLHSHHELKAIENCEYAFNLKKDEVCVNPYHYQRVETPVLPPVLVPRHTEILTELPPLDDYTHSIPENTNFPAGIEPQSNYIPETPPPGYISEDGETSDQQLNQSMDTGSPAELSPTTLSPVNHSLDLQPVTYSEPAFWCSIAYYELNQRVGETFHASQPSLTVDGFTDPSNSERFCLGLLSNVNRNATVEMTRRHIGRGVRLYYIGGEVFAECLSDSAIFVQSPNCNQRYGWHPATVCKIPPGCNLKIFNNQEFAALLAQSVNQGFEAVYQLTRMCTIRMSFVKGWGAEYRRQTVTSTPCWIELHLNGPLQWLDKVLTQMGSPSVRCSSMS
modifications: EGFP fusion
notes: mouse EGFP-Smad2 wild type transfected into HeLa cells

Each molecule was assayed on TβRI (assay: Dual color single-molecule tracking, TβRI and EGFP-Smad2). Conditions: HeLa cells with endogenous Smad2 suppressed, 10 ng/ml TGF-β.
Type: cell-based
Method: Figure 4 Quantitative imaging analyses of spatiotemporal dynamics of Smad2.A, TIRF images of mouse EGFP-Smad2-WT transfected into HeLa cells whose endogenous Smad2 is suppressed by siRNA. Images were taken before and 5 min after TGF-β stimulation (10 ng/ml) with and without PI(4,5)P2 depletion. A pseudo-coloring scheme was used with orange and blue representing the highest and the lowest intensity, respectively. B, kinetics of TGF-β stimulated (10 ng/ml) PM localization of EGFP-Smad2-WT (blue), -K420A (green), and -W422A (orange) transfected into HeLa cells the endogenous Smad2 of which was suppressed by siRNA. For EGFP-Smad2-WT, the effect of PI(4,5)P2 depletion (black) and TβRI inhibition by SB-431542 (10 μM for 36 h) (red) were measured. Data points indicate average ±S.D. (n = 10 cells). C, spatially resolved PM PI(4,5)P2 concentration ([PI(4,5)P2]) profiles calculated from two-channel cross-sectional images of HeLa cells (before and 5 min after 10 ng/ml TGF-β stimulation and after PI(4,5)P2 depletion). Each cell is a representative of more than ten cells analyzed. Spatially averaged [PI(4,5)P2] values for each cell type are shown. The z-axis scale indicates [PI(4,5)P2] in mol%. A pseudo-coloring scheme with red and blue representing the highest (1.5 mol%) and the lowest (0 mol%) concentration, respectively, is used to illustrate the spatial [PI(4,5)P2] heterogeneity. Scale bars indicate 10 μm. D, dual color single-molecule tracking of EGFP-PLCδ-PH and SNAP-TMR-labeled TβRI at the PM of HeLa cells. Time courses of the half-life of colocalization for SNAP-TMR-labeled TβRI and EGFP-PLCδ-PH after 10 ng/ml TGF-β stimulation were determined with (orange) and without (blue) PI(4,5)P2 depletion. Data points indicate average ±S.D. (n = 10 cells). E, time courses of the half-life of colocalization for SNAP-TMR-labeled TβRI and EGFP-Smad2 determined by dual color single-molecule tracking analysis. Colocalization of TβRI with EGFP-Smad2-WT (blue), -K420A (green), -W422A (orange), E425K (red), Y426A (cyan), and -R427A/R428A (black) transfected into HeLa cells whose endogenous Smad2 was suppressed by siRNA is shown. For EGFP-Smad2-WT, the effect of PI(4,5)P2 depletion (purple) was measured. Data points indicate average ±S.D. (n = 10 cells). […] TEXT PRINTED IN THE PICTURE: (C) PI(4,5)P2: [PI(4,5)P2] = 1.05 ± 0.20 mol% (HeLa unstimulated); [PI(4,5)P2] = 1.00 ± 0.40 mol% (HeLa 5 min after TGFβ); [PI(4,5)P2] = 0.16 ± 0.08 mol% (HeLa After PI(4,5)P2 depletion) DOUBTS OF THE COPYIST ABOUT THIS PICTURE: Panel C: the printed values are measured membrane concentrations of PI(4,5)P2 in HeLa cells under three conditions, not an activity or property of a compound; it is uncertain whether they count as a result for a substance
Single-molecule imaging was performed using a custom-built total internal reflection fluorescence microscope as described previously. HeLa cells were plated on the 8-well chambered coverglass (Lab-Tek, Thermo Fisher Scientific) at the density of 1 × 10^5 for 24 h, EGFP-Smad2 or mutants and SNAP-tagged TβRI were cotransfected into cells using the jetPRIME system (Polyplus-transfection) according to the manufacturer's protocols. The transfected HeLa cells were serum starved for 16 h and subsequently labeled with SNAP-Cell tetramethylrhodamine (TMR)-Star (New England Biolabs). Labeled cells were washed to remove the free dye, stimulated with 10 ng/ml TGF-β, the two protein molecules were simultaneously tracked and analyzed as described. The images were spatially corrected following the algorithm described previously ([39]). All particle tracking, data analysis, and image processing were carried out with in-house programs written in MATLAB. Colocalization analysis of two molecules was performed with a fixed threshold criterion (i.e., <400 nm) for colocalization ([39]). The same size of PM surface was analyzed for each data. […]

| Molecule | dynamic colocalization / dwell time with TβRI after TGF-β stimulation |
| --- | --- |
| B1 | much reduced TGFβ-stimulated dynamic colocalization with TβRI |
| B2 | low response to TGFβ stimulation |
| B3 | much reduced TGFβ-stimulated dynamic colocalization with TβRI |
| B4 | stronger interaction with TβRI in terms of both amplitude and duration |
| B5 | little response to TGFβ stimulation |

Same assay, conditions: HeLa cells with endogenous Smad2 suppressed, 10 ng/ml TGF-β, n = 10 cells

| Molecule | time of peak colocalization with TMR-SNAP-TβRI after TGF-β stimulation |
| --- | --- |
| B6 | 5 min |
